Measured values as given in doi:10.1101/356592 (bioRxiv, 2018).

B1: His6-tagged Dmc1 (natural protein, Saccharomyces cerevisiae, UniProt P25453 1-334, looked up)
chain: MSVTGTEIDSDTAKNILSVDELQNYGINASDLQKLKSGGIYTVNTVLSTTRRHLCKIKGLSEVKVEKIKEAAGKIIQVGFIPATVQLDIRQRVYSLSTGSKQLDSILGGGIMTMSITEVFGEFRCGKTQMSHTLCVTTQLPREMGGGEGKVAYIDTEGTFRPERIKQIAEGYELDPESCLANVSYARALNSEHQMELVEQLGEELSSGDYRLIVVDSIMANFRVDYCGRGELSERQQKLNQHLFKLNRLAEEFNVAVFLTNQVQSDPGASALFASADGRKPIGGHVLAHASATRILLRKGRGDERVAKLQDSPDMPEKECVYVIGEKGITDSSD

Assays:
[1] = molecular target: Replication protein A (RPA) (Saccharomyces cerevisiae, UniProt P22336 1-621; P26754 1-273; P26755 1-122); test: pull-down
His6-tagged Dmc1 = molecular target: B1; test: co-IP

Sequence of Replication protein A (RPA) (P22336 whole entry, chain 1 of 3): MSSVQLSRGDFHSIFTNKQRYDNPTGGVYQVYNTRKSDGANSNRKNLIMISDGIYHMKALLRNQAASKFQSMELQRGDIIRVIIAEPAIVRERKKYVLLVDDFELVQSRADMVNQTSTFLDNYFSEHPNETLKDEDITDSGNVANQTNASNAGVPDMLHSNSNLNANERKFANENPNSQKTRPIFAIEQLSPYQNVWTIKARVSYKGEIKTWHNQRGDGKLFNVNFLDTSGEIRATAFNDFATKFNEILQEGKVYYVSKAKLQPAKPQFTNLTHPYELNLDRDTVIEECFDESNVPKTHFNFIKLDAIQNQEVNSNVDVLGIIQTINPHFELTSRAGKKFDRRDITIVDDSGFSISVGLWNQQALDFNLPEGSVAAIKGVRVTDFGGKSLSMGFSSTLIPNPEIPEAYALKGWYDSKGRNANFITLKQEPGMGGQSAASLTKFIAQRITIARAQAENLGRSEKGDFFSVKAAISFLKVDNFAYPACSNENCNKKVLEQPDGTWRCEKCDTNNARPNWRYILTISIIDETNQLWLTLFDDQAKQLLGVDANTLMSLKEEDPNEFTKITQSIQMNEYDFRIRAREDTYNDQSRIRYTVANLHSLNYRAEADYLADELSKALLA
Sequence of Replication protein A (RPA) (P26754 whole entry, chain 2 of 3): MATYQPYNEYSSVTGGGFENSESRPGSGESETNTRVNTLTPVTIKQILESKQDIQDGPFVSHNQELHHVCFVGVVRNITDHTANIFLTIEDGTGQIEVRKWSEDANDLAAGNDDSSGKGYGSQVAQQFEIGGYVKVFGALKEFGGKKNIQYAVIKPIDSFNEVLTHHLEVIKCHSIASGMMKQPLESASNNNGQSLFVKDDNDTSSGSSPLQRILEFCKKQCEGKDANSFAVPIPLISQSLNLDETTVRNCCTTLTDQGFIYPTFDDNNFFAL
Sequence of Replication protein A (RPA) (P26755 whole entry, chain 3 of 3): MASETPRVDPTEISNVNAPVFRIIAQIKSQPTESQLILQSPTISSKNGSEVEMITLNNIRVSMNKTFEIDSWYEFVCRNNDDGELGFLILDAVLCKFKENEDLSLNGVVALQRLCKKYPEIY

| binding result [1] | binding result (His6-tagged Dmc1) | Binder |
| --- | --- | --- |
| binds | binds | His6-tagged Mei5-Sae3 heterodimer (complex, Saccharomyces cerevisiae) chain 1: MHNQEEWLDKDKTLVNEEENTCINHSYTKKDTNNYRVGKSGIKDLKKPTNQKEIAIKNRELTKQLTLLRQENNHLQQACKILSENKIIENRKSIEKWRTICEMELSFILNSTLIKINRMGGYKDFLEKEMEAKKRRLEYQIDNGMEDQICEIKESDDFRQLSEVEKQEWESQMNEQLKELEKKKIAELEKLNKVLHDSEGKDFGMAELCTRLKLDYSLIFPQ chain 2: MNYLETQLNKKQKQIQEYESMNGNLIKMFEQLSKEKKNDETPKKISSTYIKELKEYNELRDAGLRLAQIIADEKQCKIKDVFEEIGYSMKD |
| binds |  | B1 |
